Consider one substance from US12064469B2, “Stable peptide compositions” (TearSolutions, Inc., priority 2017, dated 2024).

“Also recorded” adds a separate entry of the source.

The nature of the series: Comparative Lacripep stability in PBS vs citrate buffer at 60° C. by MALDI TOF mass spectrometry. It counts as physicochemical. Particulars: 2 weeks. On the procedure:
FIGS. 1A and 1B illustrate the stability of Lacripep™ (SEQ ID NO: 1) (0.001%) in phosphate buffered saline (PBS), pH 4.5 and 7.0. The Lacripep™ solutions were analyzed by MALDI TOF mass spectrometry at time 0 (FIG. 1A) and after two weeks (FIG. 1B) at 60° C.
The Lacripep™ solutions were analyzed by MALDI TOF mass spectrometry at time 0 (FIG. 2A) and after two weeks (FIG. 2B) at 60° C.
Lacripep™ (SEQ ID NO. 1) stability was assessed in PBS at pH 4.5 and 7.0 (FIG. 1) and citrate buffer at pH 6.0 and 6.5 (FIG. 2). The initial concentration of Lacripep™ was 0.001%, and each trial was run at 60° C. The stability was assessed using MALDI TOF mass spectrometry at the initiation of the experiment (week 0, FIGS. 1A and 2A) and after two weeks (week 2, FIGS. 1B and 2B).

In the case of “Ac-Lys-Gln-Phe-Ile-Glu-Asn-Gly-Ser-Glu-Phe-Ala-Gln-Lys-Leu-Leu-Lys-Lys-Phe-Ser-NH2 (Ac-KQFIENGSEFAQKLLKKFS-NH2; listed as Homo sapiens) [Lacripep™]”, the “stability (Lacripep peak, MALDI TOF)” value (PBS pH 4.5, 0.001% Lacripep) is given as “significant degradation; also recorded: a degradation product becomes apparent; also recorded: An additional degradation product is seen”; the “stability (Lacripep peak, MALDI TOF)” value (PBS pH 7.0, 0.001% Lacripep) is on record as “significant degradation; also recorded: a degradation product becomes apparent”; the “stability (Lacripep peak, MALDI TOF)” value (citrate buffer pH 6.0, 0.001% Lacripep) was “no change in the intensity of the Lacripep™ peak”; the “stability (Lacripep peak, MALDI TOF)” value (citrate buffer pH 6.5, 0.001% Lacripep) is “no change in the intensity of the Lacripep™ peak”.
